B1: ZifDNA (dsDNA)
DNA 1: GGCATAGTGCGTGGGCGTTAGC
DNA 2: GCTAACGCCCACGCACTATGCC
B2: Htelo (structured_DNA)
DNA: GGTTAGGGTTAGGGTTAGGGTTAGGGTTAG

Tests used:
[1] = biological target: T1, Zif268 (mouse, UniProt P08046 333-421); assay: SPR
[2] = biological target: T1, Zif268; assay: ELISA
[3] = biological target: T1, Zif268; assay: SPR; remark: listed apart in the source

Binder	Kd [1] [nM]	Kd [2] [nM]	binding result [3]
B1	5.3 ± 1.5	12 ± 5	–
B2	–	–	no binding

— article PMC2196205
